Measurements published in US10369187B2, “Peptide regulators of JNK family kinases” (Vanderbilt University, priority 2017, dated 2019).

Biological target: MKK4-JNK3 module (Homo sapiens, UniProt P45985+P53779)
Assay: In vitro phosphorylation of JNK3α2 by MKK4 (reconstituted module)
Type: biochemical
Description: Next, it was tested whether T1A acts as a scaffold facilitating signaling. To this end, experiments used purified proteins, because they provide the most definitive data supporting a direct interaction. As purified ASK1 is not available, MKK4-JNK3 and MKK7-JNK3 modules were reconstituted in the absence and presence of varying concentrations of synthetic purified T1A peptide and measured JNK3 phosphorylation (FIG. 2A). […] This dependence, where signaling is increased at lower scaffold concentrations and decreased at higher, was also found for scaffolding of these modules by full-length arrestin-3^20. It is believed to be a characteristic of simple scaffolds, which act by bringing the enzyme and substrate together, as lower scaffold concentrations make the formation of complete scaffold-enzyme-substrate ternary complexes likely, whereas higher concentrations increase the probability of formation of incomplete enzyme-scaffold and substrate-scaffold binary complexes, suppressing the signaling^25,26. The optimal concentration of a scaffolding protein for signaling depends on its affinity for the proteins it scaffolds^20,25,26.
JNK3α2^20,23, and MKK4 and MKK7^17,20 were expressed in E. coli and purified as previously described^40. The effect of arrestin-3 and MBP-T1A on the phosphorylation of JNK3α2 by MKK7 or MKK4 was analyzed by an in vitro kinase assay, as described^19,20. Briefly, the assays were conducted in 10 μL containing the following final concentrations: 50 nM active MKK7 or MKK4, 1 μM JNK3α2, and indicated concentrations of arrestin-3 or T1A. The mixtures were incubated individually at 30° C. for 10 sec. The reactions were stopped by the addition of 15 μL of Laemmli SDS sample buffer (Sigma) and 2 μl of total reaction sample was subjected to SDS-PAGE (8%) and transferred polyvinylidene difluoride (PVDF) membranes (Millipore, Bedford, Mass.). Phosphorylated JNK3α2 was visualized by rabbit anti-phospho JNK antibody (Cell Signaling) and the level of JNK phosphorylation was quantified.

Chain of MKK4-JNK3 module (P45985 whole entry): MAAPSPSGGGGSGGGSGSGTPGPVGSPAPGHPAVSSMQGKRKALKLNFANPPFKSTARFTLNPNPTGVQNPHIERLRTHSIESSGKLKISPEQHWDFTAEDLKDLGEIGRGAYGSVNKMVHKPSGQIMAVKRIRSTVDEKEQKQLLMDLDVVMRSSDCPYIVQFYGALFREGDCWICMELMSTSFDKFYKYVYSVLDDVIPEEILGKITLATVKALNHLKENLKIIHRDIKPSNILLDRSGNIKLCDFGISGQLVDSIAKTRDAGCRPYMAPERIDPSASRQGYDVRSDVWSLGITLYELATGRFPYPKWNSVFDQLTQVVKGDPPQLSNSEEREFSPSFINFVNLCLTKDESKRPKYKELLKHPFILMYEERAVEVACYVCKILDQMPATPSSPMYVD
Chain of MKK4-JNK3 module (P53779 whole entry): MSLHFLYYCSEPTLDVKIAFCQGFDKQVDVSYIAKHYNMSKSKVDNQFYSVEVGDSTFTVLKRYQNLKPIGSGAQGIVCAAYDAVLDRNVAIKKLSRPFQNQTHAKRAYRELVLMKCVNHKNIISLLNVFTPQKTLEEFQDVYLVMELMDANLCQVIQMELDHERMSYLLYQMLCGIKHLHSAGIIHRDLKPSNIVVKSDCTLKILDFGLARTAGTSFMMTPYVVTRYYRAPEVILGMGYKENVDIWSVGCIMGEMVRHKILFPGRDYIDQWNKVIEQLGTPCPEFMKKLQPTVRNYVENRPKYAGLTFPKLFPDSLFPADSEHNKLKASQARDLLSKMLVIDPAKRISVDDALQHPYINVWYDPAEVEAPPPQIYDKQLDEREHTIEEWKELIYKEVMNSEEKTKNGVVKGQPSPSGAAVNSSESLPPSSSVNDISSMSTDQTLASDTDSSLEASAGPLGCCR

Sequence: MGEKPGTRVFKKSSPNCKLTVYLGK (bovine) [T1A, first 25 residues of arrestin-3]
- optimal concentration for promoting JNK3 phosphorylation by MKK4 compared with MKK7-JNK3 module: lower than for MKK7-JNK3 module
- optimal concentration relative to full-length arrestin-3, MKK4-JNK3 module: ~10 times lower
- JNK3 phosphorylation level by MKK4 as a function of T1A concentration (50 nM MKK4, 1 μM JNK3α2, 10 sec, 30° C., synthetic purified peptide): bell-shaped curves
